According to PMC6765115:
Read-outs that look alike come from different tables or passages of the source.

T1: C.Csp231I (C protein, WT) (Citrobacter sp. (Csp231I R-M system), UniProt Q32WH4 1-98)
T1 sequence: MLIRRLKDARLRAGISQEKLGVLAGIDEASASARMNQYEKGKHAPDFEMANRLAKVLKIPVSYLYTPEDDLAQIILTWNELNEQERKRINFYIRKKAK

T2: C.Csp231I C-ARQ (Cmut) (Citrobacter sp. (Csp231I R-M system), UniProt Q32WH4 1-98, A33G;R34E;Q37A)
T2 sequence: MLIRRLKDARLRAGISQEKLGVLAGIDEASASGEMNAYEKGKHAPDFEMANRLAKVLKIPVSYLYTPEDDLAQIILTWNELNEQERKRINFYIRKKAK


Key:
Test in all cases: EMSA
[1] = target: T1, C.Csp231I (C protein, WT)
C.Csp231I C-ARQ (Cmut) = target: T2, C.Csp231I C-ARQ (Cmut)
[2] = target: T1, C.Csp231I (C protein, WT); remark: listed apart in the source

| Binder | binding result [1] | binding result (C.Csp231I C-ARQ (Cmut)) | binding result [2] |
| --- | --- | --- | --- |
| racR (176 bp) (dsDNA) DNA 1: GCGACGCCTAACGCAATTGTCAATAGGCTGTGCCTAATGCAGTAAGGGTAGGGATTGCCTAATGTAATGCGCATAGGAGAATATTAAGCAATGCTTAGTGGTAAAGACTTAGGCCGAGCGATAGAGCAGGCCATTAACAAAAAAATCGCATCGGGATCCGTCAAATCAAAGGCGG DNA 2: CCGCCTTTGATTTGACGGATCCCGATGCGATTTTTTTGTTAATGGCCTGCTCTATCGCTCGGCCTAAGTCTTTACCACTAAGCATTGCTTAATATTCTCCTATGCGCATTACATTAGGCAATCCCTACCCTTACTGCATTAGGCACAGCCTATTGACAATTGCGTTAGGCGTCGC | binds | no binding |  |
| racRmut (176 bp) (dsDNA) DNA 1: GCGACGCCTAACGCAATTGTCAATAGGCTGTGCCTAATGCAGTAAGGGTAGGGATTGCCTAATGTAATGCGCATAGGAGAATATTAAGCAATGCGCATTGGTAAAGACTTAGGCCGAGCGATAGAGCAGGCCATTAACAAAAAAATCGCATCGGGATCCGTCAAATCAAAGGCGG DNA 2: CCGCCTTTGATTTGACGGATCCCGATGCGATTTTTTTGTTAATGGCCTGCTCTATCGCTCGGCCTAAGTCTTTACCAATGCGCATTGCTTAATATTCTCCTATGCGCATTACATTAGGCAATCCCTACCCTTACTGCATTAGGCACAGCCTATTGACAATTGCGTTAGGCGTCGC |  | no binding | no binding |
